± gives the uncertainty stated by the source.
Assay: self-splicing fitness, log relative to wild type (ln ratio); higher = more splicing; Tetrahymena group I intron in knt gene, E. coli kanamycin selection, DiMSum; sequences stand for … in CUCUCU…GGAGGGAAAAGUUAUCAGGCAUGCACCUGGUAGCUAGUCUUUAAACCAAUAGAUUGCAUCGGUUUAAAAGGCAAGACCGUCAAAUUGCGGGAAAGGGGUCAACAGCCGUUCAGUACCAAGUCUCAGGGGAAACUUUGAGAUGGCCUUGCAAAGGGUAUGGUAAUAAGCUGACGGACAUGGUCCUAACCACGCAGCCAAGUCCUAAGUCAACAGAUCUUCUGUUGAUAUGGAUGCAGUUCACAGACUAAAUGUCGGUCGGGGAAGAUGUAUUCUUCUCAUAAGAUAUAGUCGGACCUCUCCUUAAUGGGAGCUAGCGGAUGAAGUGAUGCAACACUGGAGCCGCUGGGAACUAAUUUGUAUGCGAAAGUAUAUUGAUUAGUUUUGGAGUACUCGUGGUCG
Summary of the method: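 Colonies from six replicate transformations of E. coli BL21(DE3) were pooled and amplicon-sequenced on an Illumina HiSeq 2500. The library placed an intron with all eight P1ex-region nucleotides randomised inside the knt kanamycin-resistance gene on pET-22b(+), and cells grew overnight at 37°C or 30°C on LB agar with or without 25 μg/mL kanamycin (plus 100 μg/mL carbenicillin, 50 μM IPTG, 0.2% rhamnose). Fitness is the DiMSum error-weighted combination of wild-type-normalised replicate fold changes, kanamycin versus none.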

Sequence | self-splicing fitness (ln) (30 °C) | self-splicing fitness (ln) (37 °C)
GUCGAGCAAUAUUACGGGCA | -2.65 ± 0.4 | -0.9 ± 0.18
GGCAAGCAAUAUUACGAGAG | -3.94 ± 0.24 | -2.26 ± 0.15
GUGUAGCAAUAUUACGCCAA | – | -1.85 ± 0.34
GUGUAGCAAUAUUACGUACC | -1.2 ± 0.29 | -0.885 ± 0.37
GACGAGCAAUAUUACGGAUU | – | -2.03 ± 0.19
GUGUAGCAAUAUUACGCAGU | -3.25 ± 0.21 | -2.46 ± 0.23
UCCAAGCAAUAUUACGAACA | -1.87 ± 0.14 | -0.969 ± 0.13
UAGCAGCAAUAUUACGCAGC | -2.6 ± 0.22 | -1.75 ± 0.19
GUUCAGCAAUAUUACGCGAA | -2.26 ± 0.27 | -1.82 ± 0.28
UUCCAGCAAUAUUACGUGUA | -0.989 ± 0.058 | -0.572 ± 0.064
ACGCAGCAAUAUUACGAAUA | – | -2.19 ± 0.23
UCCAAGCAAUAUUACGUAGG | -0.867 ± 0.06 | -0.159 ± 0.094
GCUCAGCAAUAUUACGGUUC | -0.806 ± 0.065 | 0.0632 ± 0.071
GUCGAGCAAUAUUACGCCGU | -1.32 ± 0.3 | -0.299 ± 0.38
GGGUAGCAAUAUUACGGGUU | -2.7 ± 0.15 | -1.27 ± 0.14
UUCGAGCAAUAUUACGAGCU | -3.65 ± 0.43 | -2.44 ± 0.45
UGAUAGCAAUAUUACGUCAG | -1.84 ± 0.1 | -1.03 ± 0.12
GGGCAGCAAUAUUACGGCGU | -1.16 ± 0.12 | -0.571 ± 0.12
CGUCAGCAAUAUUACGUAGU | -2.26 ± 0.12 | -1.24 ± 0.13
GUUCAGCAAUAUUACGCAGC | -3.43 ± 0.29 | -1.1 ± 0.2
GGCCAGCAAUAUUACGUUUC | -1.4 ± 0.095 | -0.362 ± 0.089
AUCAAGCAAUAUUACGUAGC | -4.82 ± 0.45 | -2.1 ± 0.31
AGAAAGCAAUAUUACGAAUG | -2.38 ± 0.15 | -2.25 ± 0.19
GGAUAGCAAUAUUACGACAG | -4.21 ± 0.37 | -2.36 ± 0.29
GAGAAGCAAUAUUACGCAGA | -2.84 ± 0.17 | -1.8 ± 0.19
CUGGAGCAAUAUUACGUCGG | -3.08 ± 0.26 | –

Sequence | self-splicing fitness (ln) (30 °C) | self-splicing fitness (ln) (37 °C)
CAUUAGCAAUAUUACGCACU | -1.26 ± 0.1 | -0.806 ± 0.13
AGUUAGCAAUAUUACGAAUG | -2.33 ± 0.16 | -1.56 ± 0.17
ACUUAGCAAUAUUACGCGAA | -1.74 ± 0.12 | -2.14 ± 0.2
GGUGAGCAAUAUUACGUGGG | -3.2 ± 0.23 | -2.09 ± 0.23
UAGGAGCAAUAUUACGCGAG | -2.32 ± 0.16 | -0.56 ± 0.13
UCGUAGCAAUAUUACGCUAA | – | -1.48 ± 0.29
GCAUAGCAAUAUUACGGGAU | -1.41 ± 0.085 | -0.646 ± 0.11
AGCCAGCAAUAUUACGGCGG | -2 ± 0.1 | -1.1 ± 0.15
AUCCAGCAAUAUUACGCGGC | -2.86 ± 0.18 | -4.06 ± 0.24
AUUCAGCAAUAUUACGAAAC | -1.17 ± 0.061 | -0.231 ± 0.1
CACAAGCAAUAUUACGCAGU | -3.4 ± 0.2 | -2.37 ± 0.16
ACUAAGCAAUAUUACGAGAG | -3.17 ± 0.13 | -2.52 ± 0.15
CCCAAGCAAUAUUACGCUGA | -3.51 ± 0.25 | -3.69 ± 0.34
GCAUAGCAAUAUUACGUGUG | -3.17 ± 0.14 | -1.57 ± 0.12
CAUCAGCAAUAUUACGCCUC | – | -1.57 ± 0.24
UAUGAGCAAUAUUACGAGAG | -2.42 ± 0.43 | -2.72 ± 0.38
UGCUAGCAAUAUUACGAAUU | -4.43 ± 0.41 | -1.98 ± 0.17
GUGCAGCAAUAUUACGAGGA | -3.01 ± 0.2 | -1.74 ± 0.29
UGGGAGCAAUAUUACGGCAG | -3.28 ± 0.21 | -1.34 ± 0.17
GGGCAGCAAUAUUACGCUUU | -0.861 ± 0.057 | 0.0207 ± 0.075
AUUUAGCAAUAUUACGGCUU | -0.173 ± 0.12 | 0.0373 ± 0.15
UUUCAGCAAUAUUACGUUGG | -4.07 ± 0.18 | -2.52 ± 0.2
UACUAGCAAUAUUACGAUGC | -4.22 ± 0.26 | -2.54 ± 0.3
GGGUAGCAAUAUUACGAAAU | -1.8 ± 0.11 | -0.914 ± 0.11
CAUGAGCAAUAUUACGAUCA | -2.99 ± 0.15 | -2.24 ± 0.16
UGUAAGCAAUAUUACGCCAU | -3.9 ± 0.27 | -3.35 ± 0.3

Sequence | self-splicing fitness (ln) (30 °C) | self-splicing fitness (ln) (37 °C)
UGAAAGCAAUAUUACGUAGG | -0.728 ± 0.095 | -0.459 ± 0.14
GCCGAGCAAUAUUACGAUUU | -2.04 ± 0.14 | -0.375 ± 0.14
UCCUAGCAAUAUUACGAAGA | -1.13 ± 0.12 | 0.123 ± 0.12
AUUAAGCAAUAUUACGUAUU | -2.15 ± 0.13 | -1.85 ± 0.16
AGGAAGCAAUAUUACGUACU | -1.76 ± 0.12 | -0.989 ± 0.19
GGGCAGCAAUAUUACGCCGA | -0.407 ± 0.078 | 0.467 ± 0.1
UCCUAGCAAUAUUACGAGGA | -2.59 ± 0.48 | -2.62 ± 0.35
GGAUAGCAAUAUUACGACGA | -1.43 ± 0.12 | -0.57 ± 0.1
ACUUAGCAAUAUUACGGCCU | -0.24 ± 0.1 | 0.312 ± 0.11
CUAGAGCAAUAUUACGGUCU | – | -3.69 ± 0.34
UGAGAGCAAUAUUACGGCAG | – | -1.58 ± 0.31
CUGAAGCAAUAUUACGGUCU | -4.07 ± 0.36 | -2.24 ± 0.27
CUGUAGCAAUAUUACGCUGG | – | -0.992 ± 0.34
GCAUAGCAAUAUUACGGUUA | -1.34 ± 0.093 | -0.638 ± 0.084
UAUGAGCAAUAUUACGCCGG | -1.7 ± 0.11 | -0.905 ± 0.19
UGCUAGCAAUAUUACGCGCG | -0.603 ± 0.092 | -1.08 ± 0.12
AUUGAGCAAUAUUACGGUAU | -2.06 ± 0.13 | -1.59 ± 0.18
UACAAGCAAUAUUACGCGCC | -1.66 ± 0.13 | -0.798 ± 0.13
CACAAGCAAUAUUACGCGCG | -0.772 ± 0.066 | -0.607 ± 0.071
AGGUAGCAAUAUUACGAACC | -0.58 ± 0.025 | -0.294 ± 0.041
UUUGAGCAAUAUUACGUGGU | -4.12 ± 0.33 | -2.74 ± 0.38
AUCUAGCAAUAUUACGCAUG | -1.88 ± 0.13 | -0.806 ± 0.12
GCGAAGCAAUAUUACGCUGA | -0.605 ± 0.24 | -1.5 ± 0.34
CAUUAGCAAUAUUACGAACC | -3.51 ± 0.46 | -1.98 ± 0.34
CCCAAGCAAUAUUACGUUAG | -4.82 ± 0.24 | -3.02 ± 0.22
GAGUAGCAAUAUUACGGCAC | -0.661 ± 0.2 | -0.256 ± 0.21

Reference: the supplement of paper PMC7877785
